Assay: yeast display, Sf9 membrane polyspecificity reagent, FACS + sequencing; frameworks hold sequencing errors
In short: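 Using colony PCR, genes from sorted yeast display clones were amplified, then sequenced on MiSeq at 2 × 250 and filtered by CDR length. The clones had been stained with 10% biotinylated, detergent-solubilized Sf9 membrane reagent for 1 hour at 4 °C and sorted by FACS into low and high (top ~1%) gates on anti-HA and streptavidin fluorescence. Polyreactivity labels come from the gate of origin.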
In the case of “QVQLVESGGGLVQAGGSLRLICAASGFIFSSNAMGWYRQAPGKERELVAAITRSGGSTYYADSVKGRFTISRDNAKNTVYLQMNSLKPEDTAVYYCNAYVWRSGYDYWGQGTQVTVSS”, the “polyreactivity (PSR sort gate)” value is reported as “high polyreactivity”.
For “QVQLVESGGGLVQAGRSLRLSCAASGSILGTYAMGWYRQAPGKERELVAAISSSGRTSYADSVKGRFTISRDNAKNTVYLQMNSLKPEDTAVYYCNASNYIVLINDPDAAPWLYDYWGQGTQVTVSS”, the “polyreactivity (PSR sort gate)” value was “low polyreactivity”.
In the case of “QVQLVESGGGLVQAGGSLRLSCAASGSIFVGYGAMGWYRQAPGKERELVAAITSGTSTYYADSVKGRFTISRDNAKNTVYLQMNSLKPEDTAVYYCAARGFLKYVTEFDYWGQGTQVTVSS”, the “polyreactivity (PSR sort gate)” value is reported as “low polyreactivity”.
For “QDQLVESGGGLVQAGGSLRLICAASGRIFVYYAMGWYRQAPGKERVLVATISSGGSTYYADSVKGRFTISRDNAKNTVYLQMNSLKPEDTAVYYCAADTDNRDLAYYYKGDYWGQGTQVTVSS”, the “polyreactivity (PSR sort gate)” value was “low polyreactivity”.
With “QVQLVESGGGLVQAGGSLRLSCAASGSIFNIYAMGWYRQAPGKERELVATITGIADSTYYADSVKGRFTISRDNAKNTVYLQMNSLKPEDTAVYFCAAKYGSRYTTGQTRRDYYSWGQGTQVTVSS” the “polyreactivity (PSR sort gate)” value was “low polyreactivity”.
In the case of “QVQLVESGGGLVQAGGSLRLSCAASGSIFTWYAMGWYRQAPGKETELVARINVSAGITYYADSVKGRFTISRDNAKNTVYLQMNSLKPEDTAVYYCAAEDFTRQFEYWGQGTQVTVSS”, the “polyreactivity (PSR sort gate)” value is reported as “low polyreactivity”.
For “QVQLVESGGVLVQAGGSIRLSCAASGSTSYIYVMGWYRQAPGKERELVATISKNGGDTYADSVKGRFTISRDNAKNTVYLQMNSLKPEDTAVYYCNARAFRYNRRISSRYNYWGQGTQVTVSS”, the “polyreactivity (PSR sort gate)” value was “high polyreactivity”.
In the case of “QVQLVESGGGLVQAGGSLRLSCAASGRTIRGYAMGWYRQAPGKEREFVASITWNSVSTSYADSVKGRFTISRDNAKNTVYLQMNSLKPEDTAVYYCNRRTGSYGRTPVGKGEYYYWGQGTQVTVSS”, the “polyreactivity (PSR sort gate)” value is reported as “high polyreactivity”.
With “QVQLVESGGGLVQAGGSLSLSCAASGIIFGRNALGWYRQAPGKEREMVAGITRRGARTYYADSVKGRFTISRDNAKNTVDLQMNSLKPEDTAVYYCATYSVQTDYGRGDYWGQGTQVTVSS” the “polyreactivity (PSR sort gate)” value was “high polyreactivity”.
With “QVQLVESGGGLVQAGGSLRLSCAASGGIFSYNAMGSYRQAPGKERELVATISYSGGSTFYADSVKGRFTISRDNAKNTVYLQMNSLKPEDTAVYYCARPSYTSGYQSYDYWGQGTQVTVSS” the “polyreactivity (PSR sort gate)” value was “low polyreactivity”.
In the case of “QVQHVESRGGLVQAGGSLRLSCAASGSTIGFYAMGWYRQAPGKERELVAGITNGGRTYYADSVKGRFTISRDNAKNTVYLQMISLKPEDTAVYYCIRTPRSKGNYWGQGTQVTVSS”, the “polyreactivity (PSR sort gate)” value is reported as “high polyreactivity”.
For “QLQLVESGGGLVQAGGSLRLSCAASGSTFYAYAMGWNRPAPGKERELVAAISRGGNTYYADSVQGRFTISRDNAKNTVYLQMNSRKPEDTAVYYCAARYARGRSPLQYGYWGQGTQVTVSS”, the “polyreactivity (PSR sort gate)” value was “high polyreactivity”.
In the case of “QVQLVESGGGLVQAGGSLRLSCAASGSTFPGYAMGWYRQAPGKERELVAAINWRGDSTYYADSVKGRFTISRDNAKNTVYLQMNSLKPEDTAVYYCAAKYNHVTDEYDYWGQGTEVTVSS”, the “polyreactivity (PSR sort gate)” value is reported as “high polyreactivity”.
With “QVQLVESGGGLVQAGGSLRLSCADSGLIFTAHDMGWYRQAPGKERELVADISKSGSSTYYADSVKGRFTISRDNAKNTVYLQMNSLKPEDTAVYYCNADYLTYFTTFDYWGQGTQVTVSS” the “polyreactivity (PSR sort gate)” value was “low polyreactivity”.
In the case of “QVQLVESGGGLVQAGGSLRLSCAASGRNSIYYALGWYRQAPGTDRELVAAITTTGSTKYADSVKGRFTISRDNAKKTVDLQMNSLKPEDTADYYCAARFSRWWVRYGYWGQATQVTVSS”, the “polyreactivity (PSR sort gate)” value is reported as “high polyreactivity”.
For “QVQLVESGGGLVHAGGSLRLSCAASGFTFSFYAMGWYRQAPGKERELVATITGSGVRTYYADSVKGRFTISRDNAKNTVYLQMNSLKPEDTAVYYCNRQGFTHRGYYWGQGTQVTVSS”, the “polyreactivity (PSR sort gate)” value was “high polyreactivity”.
For “QVQLVESGGGLVQAGGSLRLSCAASGFIFKSYAMGWYRQAPGKERELVAGITRRGGSTYYADSVKGRFTISRDNSKNSVYFQMISLKPEDTAVYYCNAGRKTADYDYWGQGTQVTVSS”, the “polyreactivity (PSR sort gate)” value was “high polyreactivity”.
With “QVQLVESGGGLVQAGGSLRLSCAASGSIFTLYAMGWYRQAPGKERELVADITFSGGTTYYADSVKGRFTISRDNAKNTVYLQMNSLKPEDTAVYYCATTYYQLYVQGYEYWGQGTQVTVSS” the “polyreactivity (PSR sort gate)” value was “high polyreactivity”.
In the case of “QDQLVESGGGLVQAGGSLRLSCAASGSTLEYKAIGRYRQAPGQERELVAVINRSDGSTYYADSVKGRFTISRDNAKNTVYLQMNSLKPEDTEVYYCADDRHQVSGISTEDYWGQGTQVTVSS”, the “polyreactivity (PSR sort gate)” value is reported as “low polyreactivity”.
In the case of “QVQLVESGGGLVQAGGSLRLSCAASGRTLVYYAMGWYRQAPGKERELVAAITSVGSTNYADSVKGRFTISRDNAKNTVYLQMNSLKPEDTAVYYCAADRTYRFYYTQGYEYWGQGTQVTVSS”, the “polyreactivity (PSR sort gate)” value is reported as “low polyreactivity”.
In the case of “QVQLVESGGGLVQAGGSLRLSCAASGSILFSYAMGWYRQAPGKERELVAAINRGDGNTYADSVKGRFTISRDNAKNTVYLQMNSLKPEDTAVYYCNADLFPGYVSYPEYDYWGQGTQVTVSS”, the “polyreactivity (PSR sort gate)” value is reported as “low polyreactivity”.
In the case of “QVQLQESVGGLVQAGGILRLSCAACGNIFPSAVMGWYRQALGKEREFVATINSGSNTYYADSVKGRFTISRDNATNTVYLQMNSLKLEDTAVYYCAAYFKLPAWHTYWGQGTQVTVSS”, the “polyreactivity (PSR sort gate)” value is reported as “low polyreactivity”.
For “QVQLVESGGGLVQAGGSLRLSCAASGSTFADNAMGWYSQARGKAGEFVAGISTNGGSTYYADSVKGRFTISRDNAKNTVYLQMNSLKPEDTAVYYCSAVNYYDQYGDYYWGQGTQVTVSS”, the “polyreactivity (PSR sort gate)” value was “low polyreactivity”.
In the case of “QVQLVESGGGLVQAGGSLRLSCAASGSIFAFYAMGWYRQAPGKERELVAVISASGGSTYYADSVKGRFISRDNAKNTVSLQMNSLKPEDTAVYYCAAGTSTNSGTVPEEEDYWGQGTQVTVSS”, the “polyreactivity (PSR sort gate)” value is reported as “low polyreactivity”.
For “QVQLVESGGCLVQAGGSLRLSCAASGITITANAMGWYRQAPRKERELVAAITWSGGSTYYADSVKGRFTISRDNAKNTVYLQMNSLKPEETAVYYCNAEGIGDREYDYWGQGTQVTVSS”, the “polyreactivity (PSR sort gate)” value was “low polyreactivity”.
In the case of “QVQIVESGGGLVQAGGSLRLICAASGFTFTYNAMGWYRQAPWKERELVADIDSDGSTTYADSVKGRFTISRDNAKNTVYLQMNSLKPEDTAVYYCAADYWDYSVWRWYEYWGQGTQVTVSS”, the “polyreactivity (PSR sort gate)” value is reported as “high polyreactivity”.
For “QVQLVESGVGLVQAGGSLRLSCAASGIIFPGYVMGWYRQAPGKERELVAAISSGGRTYYADSVKGRFTISRDNAKNTVSLQMNSLKPEDTAVYYCAAGGRARTYYYWGQGTQVTVSS”, the “polyreactivity (PSR sort gate)” value was “high polyreactivity”.
With “QVHLVESGGGLVQAGGSLRLSCAASGSTIVRYGMGWYRQAPGKERELVAAITSTGDSTYYADSVKGRFTISRDNAKNTVYLQMNSLKPEDTAVYYCATQSSVLSWWYDYWGQGTEVTVSS” the “polyreactivity (PSR sort gate)” value was “low polyreactivity”.
With “QVQLVESGGGLVQAGGSLRLSCAASGFTFNYYAMGGYRQAPGKERELVAAIDSGTSTNYADSVKGRFTISRDNAKNTVYLQMNSLKPEDTAVYYCAADPGIFDGIFDYWGQGSQVTVSS” the “polyreactivity (PSR sort gate)” value was “low polyreactivity”.
With “QVQLVESGGGLVQAGGSLRLSCAASGRIIYYAMGWYRQAPGKERELVAAITRNGGTYADSVKGRFTISRDNAKNTVYLQMHRLKPEDTAVYYCNADPDFGDDYWGQGTQVTVSS” the “polyreactivity (PSR sort gate)” value was “low polyreactivity”.
In the case of “QVHLVESGGGLVKAGGSLRLSCAASGSTFYANAMGWYRQAPGKEREFVASITWSGGSTYYADSVKGRFTISRDNAKNTVYLQMNSLKPEDTSVYYCAANIGHNGFDYWGQGTQVNVSS”, the “polyreactivity (PSR sort gate)” value is reported as “low polyreactivity”.
In the case of “QVQRVESGGGLVQAGGSHRLSCAASGSIFVVYTMGWYRPAPGKERELVAAITQNGGSSTYYADSVKGRFTISRDNAKNTVYLQMNSLKPEDTAVYYCNKDILSPVVRIFKYGYDMDYWGQGTQETVSS”, the “polyreactivity (PSR sort gate)” value is reported as “low polyreactivity”.
In the case of “QVQLVESGGGLVQAGGSLRLSCAASGFTFYTYFMGWYRPAPGKERELVAAITSGVSTNYADSVKGRFTISRDNAKNTVYLQMNSLKPEDTAVYYCNKDVRPAYRWYDYWGQDTQVTVSS”, the “polyreactivity (PSR sort gate)” value is reported as “low polyreactivity”.
In the case of “QVQLVKSGGGLVQAGGSLRLSCAASGFTFFVYAMGWYRPAPGKERELVAAITSSGGSTYYADSVKGRFTISRDNAKNTVYLQMNSLKPEDTAVYYCAADRYSYLGYPYEYEYWGQGTQGTVSS”, the “polyreactivity (PSR sort gate)” value is reported as “low polyreactivity”.
For “QVQLVESGGGLVQAGGSLRLSCADSGFTFSWYAMGWYRQAPGKERELVAAISLRGGSTYYADSVKGRFTISRENAKNTVYFQMNSLKPEDTAVYYCAADSFRWRYKNFYYWGQGTQVTLSS”, the “polyreactivity (PSR sort gate)” value was “high polyreactivity”.
With “QVHLVESWGCLVQAGGSLRLSCAASGSTFTGYAMGWYRHAPGKESEMVAAISRSGGSTSAADSVKGRFTISRDNAKNTVYLQMNSLKPEDTAVYYCAAQVQGTTRDKQRGGIGELDYWGQGTQVTVSS” the “polyreactivity (PSR sort gate)” value was “low polyreactivity”.
In the case of “QVQLVESCGGLVQAGGSLRLSFAASGSTFGYYTMGWYRQAPGKERELVAAISWSGGSTYYADSVKGRFTISRDNAKNTVYLQMNSLKPEDTAVYFCAALGYTYKYYSYYWGQGTQVTVSS”, the “polyreactivity (PSR sort gate)” value is reported as “high polyreactivity”.
With “QVQLVESGGGLVQAGGSLRLSCAASGRIFSRYAMGWYRQAPGKERELVASIRSGGSTYYADSVKGRFTIARDNAKNTVYVQMNSLKPEDTAVYYCAKGTFDLHYRKRYNYWGQGTQVTVSS” the “polyreactivity (PSR sort gate)” value was “low polyreactivity”.
With “QVQLVESGGGLVQAGGSLRLSCAASGSTLEPNAMGWYRQAPGKERELVAAITIGGSTYYADSVKGRFTISRDNAKNTVYLQMNSLKPEDTSVYYCARRVSRYSWRNYWGQGTQVTVSS” the “polyreactivity (PSR sort gate)” value was “high polyreactivity”.
For “QVQLVESGGGLVQAGGSLRLTCAASGSTFDYNTMGWYRPAPGKETELVAAISESGGSTYYADSVKGRFTISRDNAKNTVYLQMNSLTPEDTAVYYCATDDFGGYFGEYDYWGQGTQVTVSS”, the “polyreactivity (PSR sort gate)” value was “low polyreactivity”.
For “QVQLVESGGGLVQAGGSLRLSCAASGRIFALYAMGWYRQAPGKERELVAAITWRGGRTRYADSVKGRFTISRDNAKNTVYLQMNSLKPEDTAVYYCAKEYVKYQWDYGYWGQGTQVTVSS”, the “polyreactivity (PSR sort gate)” value was “high polyreactivity”.
For “QDQLVESGGCLDQAGCSLRLSCAASGSIFYYNAMGWSRQAHGKESEFVATITNSGGRTYDADSVKGRFTISRDNAKNSVYLQMNSLKPEDTAVYYCNADVHRFSGNGYRYYYWGQGTQVTVSS”, the “polyreactivity (PSR sort gate)” value was “low polyreactivity”.
In the case of “QVQLVESGGGLVQAGGSLRLSCAASGRTFGGNAMGWYRQAPGKERELVAGINISGGSTNYADTVKGRFTISRDNAKNTVYLQMNSLKPEDTAVYYCNADTAVYAWDDDYWGQGTQVTVSS”, the “polyreactivity (PSR sort gate)” value is reported as “low polyreactivity”.
